Assay: soluble on expression in E. coli; label from the status in PepcDB or PDB records

Sequence	soluble on expression in E. coli
MNTCRGQHGPRRPEAGAAGHRAHVDGGQRGPGGQQEPDWHKAGATIPRLPSPSGSPWRREQDPAPGEPPHIPAHGNRPGGQEIRPRIPGLDREARPAVPPTHSPSYRIRLAGSEPSLVQAAPGQAVQLFCPGNIPPEFQAGWQKEGRPISSNRYQLQADGSLIISRLRPEDAGIYSCGSHRPGHEPQEIQLRVTGGDMAVLPEGQPRHFPEPRNPDLGHGPPHRGTGAEAGGHRVLSPSHPRPATRLRLDRTQPGVVDASPGQRIRLTCRAEGFPVPTIEWQRDGQLVSSPRHQVQPDGSLVISRVDVEDGGYYSCVAFNGQDRDQRWVQLRVLRELTITGLPPAVTVAEGDTARLLCVVAGESVNIRWSRNGLPIQADGHRVHQSPDGTLLIHNLRPRDEGSYTCSAFRGSQAVSRSTEVKVALPAPAAQSRDLGKDCIDQPELANCALILQAQLCGNEYYSSFCCASCSRFQPNAQPVWQQG	soluble
SLTNKLESNYNKIACNIFYDKYKNANEIIKALKLIDIDDNDFKKSFSIYSKKATSGNDEKIVKFLLFNIERHLSGGICDEQIATIEHILPSSLNDEKVHKLGNYILLEAKYNQQLKNKNFKEKIDIYSKSNFKLAQYVAENFKTWDTKSIDQYQNFLAKQALALWKF	soluble
MGSDKIHHHHHHMDNPFARFAGTRTIQANLSLLEENYVPDSFPHRENQINEMVTILSSIMRGSRPSNIIVYGKTGTGKTSTTKYVTKMLVEAASNVSVVYVNCEIYDSPYSILVAIANSAGEEKIPELGWPIDRIYRETVERVEKTGKFFIIILDEMDRLIKKNGGDSLYVLLKLMTDVDSVRVSMIGITNDTTVLENIDARIKSRLNQESIVFPPYNASEIRDIISSRLDKVLGPGVVDDTAINLCAAIGAQEHGDARKAIDLMRIAIEIAIRENRNKITENEIYEARERYEMNVLREAISTLPLHSKIVLLSAVVTQEIEPNSVITGEIYENYRRICDDLGFSPLSPRRISDLLTELADYGLLVMDDRNMGKYGRTRSFSVVHQAETIKKYLLEDENLSMFKSSKMPKQTRFDT	not soluble
SNAMPMTLDLQPGQRLARGVARHLRAHGFVSVEEFVPARGLRVDVMGLGPKGEIWVIECKSSRADFQADAKWQGYLEWCDRYFWAVDMEFPAELLPAESGLLIADAYDAEIVRMAPEQKLAPARRKVLIQKFATHAARRLQALRDPEGHGIFE	soluble
MAVRFASLGSGSDGNALLVESTDGTTSTRILLDCGFGIRETVRRLERLGCAPASLDAILVTHEHGDHIGSAYAFAAKYSVPVWTSHGTYRATASLRGADRAAVRFCRADDAFSIGDLRILPYTVPHDAREPLQFIFDDGARRLGVLTDAGMSTEYLCGHLTGLHAFVLECNHDREMLANSAYPWSLKQRIGGDFGHLANDIAAAILARVRHDGLHTVVAAHLSKQNNTPELAAAAIASALGVPAGDVPIADQEAGLGWQAVLEHHHHHH	not soluble
MAHHHHHHMEEGAPTPAAPVGEDQEVAAAPATEEPASIMQVENTNFNWADDDIQFQIRQPQYAAEYPVSVLENLARNVTFKVPEDQNTMTSAIEALARERQAFEQMKRNHEDAMKSREVELNAQEATLQARERQLHANTETLAAERQQLILQQSQFRAQQAQAQAQSQAQAQTQSQPRTSSQTQSPAAQVSPSPAQAAQPAHAPQLQHQMPPPHQQPQPRSGNVYMGGGYGAQEWQPDQRTWGNEGAMGAPGFDMYQGAYPGSYAQRNYHMAGGHRGQMRSGNLPQQQFPGNRMQPMMPPPQQYSRSMAPLGAARQQQMDMNFGGRSQQSYNPAPNTGYPQRSAQW	soluble
EQELSYFAVFRRVYVQRDEVRQIASIVQRGERDHTFRVGSLIFHTIGQLLPQQMQAFHSPKALFPVGYEASRLYWSTRYANRRCRYLCSIEEKDGRPVFVIRIVEQGHEDLVLSDISPKGVWDKILEPVACVRKKSEMLQLFPAYLKGEDLFGLTVSAVARIAE	not soluble
MTVKQTVEVTNKLGMHARPAMKLFELMQGFDAEVLLRNDEGTEAEANSVIALLMLDSAKGRQIEIEATGPQEVEALAAVIALFNSGFDED	not soluble
MAHHHHHHMIEETSFSNLKWEHDLFSIGDLHGDMDAFLKILLNEKMIDKNYNVIRENVLIVITGDVLDPSYDDINILFFIEEYNEKGKALNSKILMVLGNHEVKNMCLEFNKVKKNVEKYQNRNDMFPKNEVIYNILVNKPFVLRVNEMVFSHAGVLPFYASYGIDYINKEGKNEIENNCKLLFNKRKRKEEFCIACDYGPTLNRYFSFVNDGVFKKWMVCSTLNKSLNLLSSRRMIVGHTVQKNKKINSFCDDKLLLTDTGISKWKNGVVSYVQYFKDGTFDVRYL	not soluble
ESKSPIIQNVLSYITEHFSEGMSLKTLGNDFHINAVYLGQLFQKEMGEHFTDYLNRYRVNYAKEELLQTKDNLTIIAGKSGYTDMAYFYRQFKKHTGETPNRYRKIHQ	soluble
GKSLKVSSPRPGLLERLSATIQRNLPGHSMLDRQLTTDGKKNQESRFSFSMIKDRIVHFAVSTKLGSVRDSASKHGGEVTFKFAQTKGAFLDQIMKHQDTSGGVCESISAHWISAHAKGESVFNQLYVGGQKGQFHIDSLVSIKQLQMDGLDPYAEQSQITESWLRENGIQPRSPLEVSGETGSKGTKDLLNAILDTGDKGSGYKKISFEGQMAGHTVAAYVDDQKGVTFFDPNFGEFSFPDKTSFSNWFSQDFWSKSMYNKEIGLGQNFYVSNFEP	not soluble
MYTNRWEGLDEFVAVAECGQFTAAALRLGVSSSHVSRQIVRLEERLQTRLLYRSTRKVALTEAGQTFLHHCQRLQDGREEALRAVGDLASEPKGLLRMTCAVAYGERFITPLVTRFMELYPQLRVDIELSNDTLDLVHEGMDLAIRLGRLQDSRMVATRLAPRQMYLCASPSYLERYGRPHSLSELSRHNCLIGGSDTWQLQQNGREFSQRVQGNWRCNSGQAVLDAALQGVGLCQLPDYYVQKHLKEGALVSLLEAHQPPNTAVWALYPQQRHLSPKVRKLVDYLKEGLAMQDEYRQ	not soluble
YPQVIVDHPFLYLIRNRKSGIILFMGRVMNPHH	soluble
MELKPTAPPIFTGRPFVVAWDVPTQDCGPRLKVPLDLNAFDVQASPNEGFVNQNITIFYRDRLGLYPRFDSAGRSVHGGVPQNVSLWAHRKMLQKRVEHYIRTQESAGLAVIDWEDWRPVWVRNWQDKDVYRRLSRQLVASRHPDWPPDRIVKQAQYEFEFAAQQFMLETLRYVKAVRPRHLWGFYLFPDCYNHDYVQNWESYTGRCPDVEVARNDQLAWLWAESTALFPSVYLDETLASSRHGRNFVSFRVQEALRVARTHHANHALPVYVFTRPTYSRRLTGLSEMDLISTIGESAALGAAGVILWGDAGYTTSTETCQYLKDYLTRLLVPYVVNVSWATQYCSRAQCHGHGRCVRRNPSASTFLHLSTNSFRLVPGHAPGEPQLRPVGELSWADIDHLQTHFRCQCYLGWSGEQCQWDHRQAAGGASEAWAGSHLTSLLALAALAFTWTL	not soluble
QILSPNYKARADSNAFYQKPVYPSRGVIYDRNGELLVYNEPAYDLVAVTKEVGEFDTLALCQTLNVEPEYVRKRFQDIRDRRINPGYSPYVPQLLLAQLNPREAGRFQEQLFKFPGFSIRPRAIRQYKYHGAAHVLGYLSEANMRDLERDSSLIAGDYVGRSGIERQYEKTLRGEKGIEVLLRDARGRIKGHYSDGKYDSPAIPGRDLTLSIDSKLQTLGEQLMQGKRGAIVMIEPETGEVLCLVSSPSYDPSLLAGKDRGKNHLEMEHDRNKPLYARAIQATYPPGSTFKPAQGAIFLQEGVIRPTDAFSCYHGFPPLNNRPACHSHGSP	not soluble
MAAETKVQVSDPEAEFLNSKQETGYEWELFKENVRPLKRGRNVGILNHALKSHSDHQLRKNLIEKRRNLIEAIDEYEGDDPLSPWIECIKWVQEAFPPGGECSGLLVIYEQCVRKFWHSERYKDDLRYLKVWLEYAEHCADAEVIYKFLEVNEIGKTHAVYYIAYALHIEFKNKVKTANEIFNLGISRDAKPVEKLNDAYKKFMVRTMRRSNTADEEPKENNDLPSRSFGTLLSRGDNNARRQALGSSNPQAKKLKPNQSSKTPFAIYADAVSDTTSGNQPESDKSRPEFGSWLMLGGRAERNKENNSLPRKWASFKVPQKPIVRTVAAASASTFEVFVDEEECTEEEEEKKKNDETISSSSNVLPLNGGREIKKETELLRQNPLRHFPPNSFLR	not soluble
MIDHNIRTGKAFFGRRKGKRLRNSQLVLIKKLFPTLDINLNNSVPLNLTSLFSRKVKEVRLEIGFGGGEHLLHEMKHFPQTGFIGIEPFINGMAKMLMSLEEHKQYQNQLRLYNDDATGLLDWLPNASLDGIDLFYPDPWPKKKHWKRRFINMKNLNRFARVLKTGKKFRFASDIESYVNWTLYHCSNHHSFEWEAKNPKDWKTPYTLWSGTRYEAKALREGRAPTYLTFIKK	not soluble
MSLSEALERLIDQGVGREPADIVLKGGRFFDLVTGELVASDIAISGERIVGTCGDYEGREEIDVTGRIVVPGFIDTHLHIESSLVTPHEFDRCVLPLGITTVVCDPHEIANVLGTEGIQYFLDSAMETVMDIRVQLSSCVPATHLETSGADLPVGRLTPFRHHPKVIGLAEFMNFPGVVNKDPVCLAKLDAFQDGHIDGHAPLLRGKELNGYLAAGIRTDHECTSAEEALEKIRKGMHILVREGSVSKDLQALMPILTERLSPYLALCTDDRNPLDIAEQGHLDNMIRTAISAGVEPLAIYRAASISAARAFGLRDRGLVAPGWRADLVIVDSLENCKAELVLSAGRRVTDALFAGRKPVEPVGLDSVKAREVKAADFGLPYNEGETSVLGVLPGKIITEHRRYRLPAEGNRTGVDLDRDIIKVAVIERHGVNGNHANGFVQGFGLKKGAIASTVGHDSHNICVVGVNDDDMALAVNRLGEIKGGFVVVHDGKVTGEIALPVAGLMSLEPYERVRDTLHHLRQAAFALGATLEEPFLQLAFLPLPVIPHLKISDRGLVDVDRFMLIGEGHHHHHH	soluble
MIDPVCGMKVDKNAKFKSTYNGKEYYFCSEHCKVEFDRNPIKYTR	not soluble
MDDIRKIERLAAASWPAYFQKSIGKWLLRANFGVTKRANSVWTSADMPEGDFQLEAELFYQSLGLPVCFHISNASPKGLDDALADSRYEKVDECFQMTALCRSIMSRTNDNSRFTYKWEQEPSSVWIDEFIQLEGFSPERHKGYKHIFERMPPCKTFFKMYDKESLTALGTVSVIDGYGGLSNIVVAEEHRGKGAGTQVIRVLTEWAKNNGAERMFLQVMKENLAAVSLYGKIGFSPISEHHYRIKRLEHHHHHH	not soluble
MELTAVPATQFSSVQLTDILNACFEAYLVPVTQSVEGFVQRFSAEGMSLVDSRVWLAGDEPAAIAIVARRGSAARLAAFALRPAWRGKGLGRKLMQELLMLLQQQGIETVYLEVIRDNHAAVALYQSLGFTRRYGLCGYLSTELLAPVPGVLQLYPTLSLLRRAIEESNSQLPWLLDPLTFATLPCQVVTLEQRAFAVLTTAGSRPVLSFLWVEPAARRQGLARELLMALAQQFPGIGTSVTVPETFTPLFAAAGYTPLSLQQYEMTMDLADAKSA	not soluble
NKDWRINGYVNFSRNENKITELPANMVQENYSPKNGAYAARAEVGRPIGSFYGYRYKGVYQNTDATYARDAEGNVMNDAKGRPIVMKNLTATCQPGDAMYEDINHDGVINQYDIVYLGNANPTLTGGAGLTVKYKQFSINTFFHGRFGQSVVNTARMNNESMHGNANQSTAVLRRWKNEGDITDIPRALYGEGFNYLGSDRFVEDTSFLRLKQLTLNYAFPKSICNKLGITSLTCFVTGYNLFTWSSYTGQDPEVNLPSRPTDLATDGATTPVSRRYTFGFNLSF	not soluble
